Measurements reported in patent US10874712B2, “Methods, compounds and compositions for modulating blood brain barrier integrity and re-myelination” (University Health Network, priority 2015, dated 2020).
“Also recorded” adds a separate entry of the source.

What was measured:
[1] = system: b.end3 cells; assay: In vitro BBB permeability, Dextran-FITC extravasation in Boyden chamber; type: cell-based, mouse; settings: b.end3 monolayer; for extravasation of Dextran-FITC in sRGMa-treated cells: 4 h pre-treatment (10 μg/mL sRGMc, 10 μg/mL C3 Transferase or 10 μM Y27632), then RGMa 18 h
Description: (A) Neogenin expression was analyzed on the membrane of b.end3 cells using immunohistochemical staining and by Western blot. (B) Crystal violet staining showing the b.end3 cell monolayer, (C) Representative diagram of the boyden chamber set up and (D) BBB permeability in b.end3 cells. Serum-starved cells were incubated for 4 h with RGMa (10 μg/ml), C3 Transferase (10 μg/mL) or Y27632 (10 μM) or sRGMc (10 μg/mL) and were then incubated with sRGMa (5 μg/mL) for 18 h followed by seeding of Dextran-FITC onto the upper chamber. Extravasation was measured over a period of 60 min as described in the Examples. n=3, performed in triplicates.
b.End3 endothelial cells were used to generate an in vitro model of the human EC barrier lining the choroid plexus. Briefly, b.end3 cells were plated on polyethylene-coated 0.4 μm pore size Boyden chambers (Corning) at a density of 2×10^5 cells per well in DMEM, and were allowed to grow for 72 h to reach confluency (verified using crystal violet staining). After 72 h, cells were serum starved for 6 h and pre-treated for 4 h with 10 μg/mL sRGMc, 10 μg/mL C3 Transferase or 10 μM Y27632. RGMa was then added to the wells for 18 h. The transwells were then transferred to a new plate containing 500 μl of HBSS and 200 μl 4-KDa Dextran-FITC (25 mg/ml; Sigma-Aldrich) was added to the upper chambers. Tracer diffusion across the EC monolayer was assessed in 30 min intervals for a period of 1.5 h. FITC signal, which represented the amount of extravasation through the monolayer was analyzed with using a microplate reader.

[2] = target: T1, Neogenin (Homo sapiens, UniProt Q92859); assay: In vitro competition binding assay (AP-tagged proteins); settings: pre-incubation of sRGMa with Ec-Neogenin-AP; compared to BSA control
T1 construct: His-tagged proteins (2.5 μg/mL of extracellular-Neogenin or sRGMa or sRGMc) were then coated onto each well; His tag (coated format); Alkaline phosphatase (AP) fusion (solution format, Ec-Neogenin-AP); made in house
T1 sequence (Q92859 34-1105 limits assumed): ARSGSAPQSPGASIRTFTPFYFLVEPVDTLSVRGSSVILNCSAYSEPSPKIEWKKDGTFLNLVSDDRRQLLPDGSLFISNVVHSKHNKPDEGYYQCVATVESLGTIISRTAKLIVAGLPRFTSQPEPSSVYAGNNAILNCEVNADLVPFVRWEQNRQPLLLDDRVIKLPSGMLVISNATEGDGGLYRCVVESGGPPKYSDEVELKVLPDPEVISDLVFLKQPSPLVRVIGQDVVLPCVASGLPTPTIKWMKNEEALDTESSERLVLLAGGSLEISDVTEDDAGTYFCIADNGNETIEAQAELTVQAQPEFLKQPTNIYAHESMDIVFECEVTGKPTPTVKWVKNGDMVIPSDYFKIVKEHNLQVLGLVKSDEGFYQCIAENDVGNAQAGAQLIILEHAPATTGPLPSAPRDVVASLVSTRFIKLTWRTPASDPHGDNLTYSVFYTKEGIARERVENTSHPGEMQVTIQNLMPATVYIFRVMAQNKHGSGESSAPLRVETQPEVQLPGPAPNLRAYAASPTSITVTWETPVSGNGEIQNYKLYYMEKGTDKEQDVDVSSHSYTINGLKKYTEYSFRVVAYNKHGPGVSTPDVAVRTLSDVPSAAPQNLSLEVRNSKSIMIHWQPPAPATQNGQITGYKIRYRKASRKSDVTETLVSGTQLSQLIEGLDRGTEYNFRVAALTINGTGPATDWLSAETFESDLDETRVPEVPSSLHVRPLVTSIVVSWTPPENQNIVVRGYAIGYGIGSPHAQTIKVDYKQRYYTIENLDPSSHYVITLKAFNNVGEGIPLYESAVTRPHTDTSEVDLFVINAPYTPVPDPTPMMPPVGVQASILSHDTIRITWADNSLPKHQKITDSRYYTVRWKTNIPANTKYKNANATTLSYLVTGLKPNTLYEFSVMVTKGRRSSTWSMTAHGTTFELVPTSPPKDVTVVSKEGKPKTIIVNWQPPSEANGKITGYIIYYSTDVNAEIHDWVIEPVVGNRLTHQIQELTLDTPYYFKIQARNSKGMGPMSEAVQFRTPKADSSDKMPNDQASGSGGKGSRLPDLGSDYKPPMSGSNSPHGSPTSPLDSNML
Description: (C) Binding of Neogenin to bovine serum albumin (Neogenin+BSA), to RGMa (Neogenin+RGMa), and to RGMc (Neogenin+RGMc) in RGMa-AP and in RGMc-AP. Constructs overexpressing His-tagged sRGMa, sRGMc and the extracellular domains of Neogenin (Ec-Neogenin) were coated onto Poly-L-Lysine coated wells. Alkaline Phosphatase (AP)-tagged proteins (EC-Neogenin or RGMa or RGMc) were then added to each well and incubated at 37° C. for 1 h. Each well was washed and equilibrated with AP developing buffer (100 mM NaHCO3, 1 mM MgCl2). The reaction was initiated using AP developing buffer supplemented with p-nitrophenyl phosphate and then stopped following color development by adding 50 μl (0.1M) NaOH. The absorbance of each reaction was measured using a microplate autoreader at 405 nm as described in the Examples. (D) Binding of Neogenin-AP to bovine serum albumin (Neogenin-AP+BSA), to RGMa (Neogenin-AP+RGMa), and to RGMc (Neogenin-AP+RGMc). Competition assay was performed as described in the Examples and above but in which the constructs were reversed.
Using a 96-well microtiter plate (Corning), wells coated with 100 μl (10 μg/mL) of Poly-L-Lysine (Sigma-Aldrich) incubated at 4° C. overnight were then washed 3× with 100 μl of PBST (+0.02% Tween-20). […] The absorbance of each reaction was measured using a microplate autoreader (BioTek EL311 AutoReader) at 405 nm.

[3] = system: Claudin 5 in b.End3 cells; assay: Claudin 5 expression in endothelial cells by Western blot; type: cell-based, mouse; settings: incubation with RGM proteins
Description: Cells were pretreated for 6 h with PBS, RGMc, RGMa or RGMc+RGMa. Western blotting was performed on the lysates with Claudin-5 and GAPDH antibodies.
Next, the BBB permeability was assessed by injecting mice with BSA, RGMa, RGMa plus RGMc and subsequently followed by assessment of Texas dye leakage using widefield imaging as an indication of BBB integrity. […] Thus, Claudin 5 expression following RGMa/c treatments of murine-derived brain endothelial cells (b.End3) was studied. B.En3 cells were grown up to 80% confluency and were treated with overnight incubation with RGM proteins.

[4] = system: blood brain barrier of mice; assay: BBB permeability, Texas red dye leakage by widefield imaging; type: in vivo, mouse; settings: mice injected with RGMa alone; vs vehicle
Description: Mice were treated with RGMa (70 ug), RGMa (70 ug)+RGMc (70 ug), or Vehicle (1% BSA) 18 h prior to widefield imaging (100-300 ms exposure) prior to and following intravenous injection of Texas Red dye (0.5 mg) over time. […] (B) Quantification of the leakage of Texas Red dye (measured as the number of leakage sites/mm^2).
BBB integrity was assessed in mice treated with PBS (Vehicle), RGMa, RGMc, RGMa+ immunoglobulin domain of Neogenin (4Ig). Widefield imaging was then carried out under a Olympus microscope (BX6 1WI) prior to and following the injection of Texas red dye (100 uL, I.V., 5 mg/ml) using 100-300 ms exposure. Recording was performed from 0 min to 35 min following injection. Texas dye leakage was also assessed in RGMc knockout (KO) and wild type (WT) mice. The leakage of Texas-red dye was quantified by a blind experimenter measuring the number of leakage sites/mm^2. (A) Representative images of Texas red dye: PBS (Vehicle), RGMa, RGMa+RGMc and RGMa+4Ig (immunoglobulin domain of Neogenin). Quantification of the leakage of Texas Red dye in animals treated with (B) PBS (Vehicle), RGMa or RGMa+RGMc or in RGMc KO and WT mice or (C) PBS (Vehicle), RGMa, RGMa+RGMc or RGMa+4Ig.
Mice injected with BSA, RGMc, RGMa, or RGMa+RGMc. […] Leakage of Texas red dye was quantified by a blind experimenter measuring the number of leakage sites/mm^2. […]

C3 Transferase [reference compound]
extravasation of Dextran-FITC in sRGMa-treated cells [1]: reduced

C[C@@H](N)[C@H]1CC[C@H](C(=O)Nc2ccncc2)CC1 [Y27632, reference compound]
extravasation of Dextran-FITC in sRGMa-treated cells [1]: reduced

B1: sRGMa: mouse RGMa cloned with His tag replacing the GPI-anchor, secreted soluble protein (protein)
chain: PHLRTFTDHFQTCKVQGAWPLIDNNYLNVQVTNTPVLPGSAATATSKLTIIFKNFQECVDQKVYQAEMDELPSAFADGSKNGGDKHGANSLKITEKVSGQHVEIQAKYIGTTIVVRQVGRYLTFAVRMPEEVVNAVEDRDSQGLYLCLRGCPLNQQIDFQAFRANAESPRRPAAASPSPVVPETFPYETAVAKCKEKLPVEDLYYQACVFDLLTTGDVNFTLAAYYALEDGKMLHSNKDKLHLFERTRELPGAVAAAA
modifications: left off: large carriers
notes: mouse RGMa cloned with His tag replacing the GPI-anchor, secreted soluble protein
reduction of binding intensity of RGMc to Neogenin [2]: 3 fold
reduction in Claudin 5 levels [3]: 2 fold
extravasation of Dextran-FITC ([1]; sRGMa alone, vs vehicle-treated wells): increased
BBB integrity, leakage of Texas Red dye [4]: significantly disrupted BBB integrity; also recorded: significantly elevated leakage
